Source: US20150004174A1 (Amgen, published 2015)

Experiments:
[1] = target: human PCSK9 D374Y mutant (human, UniProt Q8NBP7 31-692, biotinylated in the ELISA formats (site not stated)); test: cell-based or functional assay
[2] = target: human PCSK9 (proprotein convertase subtilisin kexin type 9), wild type (human, UniProt Q8NBP7 31-692, biotinylated in the ELISA formats (site not stated)); test: cell-based or functional assay
[3] = target: T1, mouse PCSK9, 8xHis tagged (mouse, UniProt Q80W65 35-694); test: KinExA solution equilibrium
T1 construct: The biotinylated mouse PCSK9 of the hybridoma cross-reactivity screen is entered under this molecule; also called mPCSK9-8xHIS; mPCSK9; not shown: 8xHis tag named only in the label
T1 sequence (Q80W65 35-694): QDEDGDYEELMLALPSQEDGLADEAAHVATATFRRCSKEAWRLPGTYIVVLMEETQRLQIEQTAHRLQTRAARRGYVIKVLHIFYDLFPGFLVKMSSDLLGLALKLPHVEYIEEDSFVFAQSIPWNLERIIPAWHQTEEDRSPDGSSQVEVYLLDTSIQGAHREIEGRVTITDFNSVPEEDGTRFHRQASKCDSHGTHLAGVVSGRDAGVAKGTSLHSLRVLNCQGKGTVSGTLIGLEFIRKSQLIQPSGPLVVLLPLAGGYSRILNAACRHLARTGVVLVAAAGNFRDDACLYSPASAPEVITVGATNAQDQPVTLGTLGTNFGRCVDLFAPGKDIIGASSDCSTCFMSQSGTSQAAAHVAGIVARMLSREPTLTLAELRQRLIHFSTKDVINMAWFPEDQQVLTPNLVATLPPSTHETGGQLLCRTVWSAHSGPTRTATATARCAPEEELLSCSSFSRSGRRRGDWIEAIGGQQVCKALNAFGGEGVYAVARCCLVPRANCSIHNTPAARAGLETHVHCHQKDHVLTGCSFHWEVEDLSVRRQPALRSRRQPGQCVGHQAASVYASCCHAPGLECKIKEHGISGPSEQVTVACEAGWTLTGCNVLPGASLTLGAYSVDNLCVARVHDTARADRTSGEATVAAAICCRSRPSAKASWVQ

Row | EC50, block of PCSK9-mediated decrease of BODIPY-LDL uptake in HepG2 cells [1] [nM] | EC50, block of PCSK9-mediated decrease of BODIPY-LDL uptake in HepG2 cells [2] [nM] | fold lower affinity to mouse PCSK9 than to human and cyno PCSK9 [3] [fold] | Binder
1 | 35.3 | 124 | – | 11F1 anti-PCSK9 antibody (antibody, V domains shown) VH: EVQLVESGGGLVQPGGSLRLSCAASGFTFSNYWMSWVRQAPGKGLEWVASIKQDGSEKYYVDSVKGRFAISRDNAKNSLFLQMNSLRAEDTAVYYCARDLVLMVYDIDYYYYGMDVWGQGTTVTVSS VL: not shown
2 | – | – | 10 to 250 | 16F12 human IgG4 (antibody, V domains shown, also called 16F12.1; 16F12, anti-PCSK9 huIgG4) VH: QVHLVESGGGVVQPGRSLRLSCAASGFTFNSFGMHWVRQAPGKGLEWVALIWSDGSDEYYADSVKGRFTISRDNSKNTLYLQMNSLRAEDTAVYYCARAIAALYYYYGMDVWGQGTTVTVSS VL: QSVLTQPPSVSAAPGQKVTISCSGSSSNIGNNFVSWYQQLPGTAPKLLIYDYNKRPSGIPDRFSGSKSGTSATLGITGLQTGDEADYYCGTWDSSLSAYVFGTGTRVTVLQ
